Key:
FcRn = FcRn (UniProt P55899); experiment: Biacore; FcRn directly immobilized; response at end of injection normalised to the standard
FcγRIIIa V158 = FcγRIIIa V158 (UniProt P08637); experiment: Biacore; FcγR captured through anti-His antibody; response at end of injection normalised to the standard
FcγRI [1] = molecular target: FcγRI (UniProt P12314); experiment: as above
FcγRI [2] = experiment: as above
Flt3 receptor (human) = Flt3 receptor (human) (UniProt P36888); experiment: cell-based or functional assay
Flt3 receptor (human), sequence (P36888 27-993): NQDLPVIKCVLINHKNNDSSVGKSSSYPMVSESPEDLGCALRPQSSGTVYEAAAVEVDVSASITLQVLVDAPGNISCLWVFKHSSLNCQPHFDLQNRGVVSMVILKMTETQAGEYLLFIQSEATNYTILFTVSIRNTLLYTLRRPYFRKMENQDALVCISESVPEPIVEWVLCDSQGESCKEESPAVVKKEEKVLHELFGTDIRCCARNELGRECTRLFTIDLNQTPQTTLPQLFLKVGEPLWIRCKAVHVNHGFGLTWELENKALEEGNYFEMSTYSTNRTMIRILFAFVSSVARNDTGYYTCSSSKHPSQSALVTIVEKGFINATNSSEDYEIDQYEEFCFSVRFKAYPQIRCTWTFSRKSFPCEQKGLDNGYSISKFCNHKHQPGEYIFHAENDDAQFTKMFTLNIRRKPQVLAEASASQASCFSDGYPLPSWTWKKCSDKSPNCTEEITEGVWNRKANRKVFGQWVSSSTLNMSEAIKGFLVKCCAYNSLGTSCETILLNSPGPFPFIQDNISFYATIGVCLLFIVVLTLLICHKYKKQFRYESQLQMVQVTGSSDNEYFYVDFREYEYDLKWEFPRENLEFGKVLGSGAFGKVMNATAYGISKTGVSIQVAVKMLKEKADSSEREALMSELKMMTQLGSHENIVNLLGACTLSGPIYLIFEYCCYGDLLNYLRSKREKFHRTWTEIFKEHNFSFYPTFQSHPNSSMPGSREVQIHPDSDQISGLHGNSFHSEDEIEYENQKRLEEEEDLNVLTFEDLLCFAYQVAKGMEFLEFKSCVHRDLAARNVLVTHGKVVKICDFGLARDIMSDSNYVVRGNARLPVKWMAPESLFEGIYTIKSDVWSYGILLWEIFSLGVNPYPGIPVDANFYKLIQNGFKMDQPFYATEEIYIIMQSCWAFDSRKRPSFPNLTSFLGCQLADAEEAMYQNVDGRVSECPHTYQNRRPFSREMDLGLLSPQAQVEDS

anti-CD20 antibody (ocrelizumab variable domains) with IgG1 NG constant region, sequence (constant): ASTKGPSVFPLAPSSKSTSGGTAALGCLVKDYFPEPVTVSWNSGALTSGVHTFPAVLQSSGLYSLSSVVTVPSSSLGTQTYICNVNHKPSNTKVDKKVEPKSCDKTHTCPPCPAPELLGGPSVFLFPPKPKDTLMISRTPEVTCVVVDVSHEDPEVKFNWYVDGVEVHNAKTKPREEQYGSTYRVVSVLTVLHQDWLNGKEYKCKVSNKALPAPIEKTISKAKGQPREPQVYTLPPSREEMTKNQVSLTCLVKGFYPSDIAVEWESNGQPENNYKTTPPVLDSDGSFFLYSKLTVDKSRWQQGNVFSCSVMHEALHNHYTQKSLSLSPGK
FcRn, sequence (P55899 24-297 limits assumed, form in doubt): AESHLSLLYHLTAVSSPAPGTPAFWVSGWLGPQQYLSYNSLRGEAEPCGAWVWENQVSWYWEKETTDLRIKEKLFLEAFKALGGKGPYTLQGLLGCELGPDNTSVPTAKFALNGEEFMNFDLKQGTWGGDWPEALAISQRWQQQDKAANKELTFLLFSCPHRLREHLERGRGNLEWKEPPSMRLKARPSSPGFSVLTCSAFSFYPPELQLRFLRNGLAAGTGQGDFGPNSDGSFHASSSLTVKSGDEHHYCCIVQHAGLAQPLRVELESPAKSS
FcγRIIIa V158, sequence (P08637 17-208 F176V limits assumed): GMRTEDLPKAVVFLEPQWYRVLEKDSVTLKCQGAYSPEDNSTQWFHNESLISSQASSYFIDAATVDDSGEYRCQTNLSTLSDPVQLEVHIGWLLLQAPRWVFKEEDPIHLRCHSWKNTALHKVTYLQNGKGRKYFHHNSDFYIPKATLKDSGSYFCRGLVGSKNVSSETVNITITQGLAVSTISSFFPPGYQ
anti-CD20 antibody (ocrelizumab variable domains) with IgG1 LALAPG constant region, sequence (constant): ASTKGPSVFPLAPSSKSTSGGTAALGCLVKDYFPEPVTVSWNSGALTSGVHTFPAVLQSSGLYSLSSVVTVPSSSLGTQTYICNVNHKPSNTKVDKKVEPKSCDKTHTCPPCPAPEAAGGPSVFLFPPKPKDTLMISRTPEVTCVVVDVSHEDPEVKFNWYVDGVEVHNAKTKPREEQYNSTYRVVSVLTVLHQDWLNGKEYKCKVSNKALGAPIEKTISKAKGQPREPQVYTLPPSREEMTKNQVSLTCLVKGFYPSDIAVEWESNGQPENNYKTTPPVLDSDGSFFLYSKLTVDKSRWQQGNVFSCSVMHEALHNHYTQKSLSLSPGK
FcγRI (UniProt P12314), sequence (P12314 16-288 limits assumed): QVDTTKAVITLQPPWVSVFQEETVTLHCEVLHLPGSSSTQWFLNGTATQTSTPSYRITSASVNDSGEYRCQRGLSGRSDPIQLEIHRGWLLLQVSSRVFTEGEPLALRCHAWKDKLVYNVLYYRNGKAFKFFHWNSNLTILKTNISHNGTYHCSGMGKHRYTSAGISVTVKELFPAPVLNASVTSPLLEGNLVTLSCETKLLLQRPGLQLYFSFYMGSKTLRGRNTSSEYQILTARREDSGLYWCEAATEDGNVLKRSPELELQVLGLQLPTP

| Molecule | relative binding level (%) at 10 ug/ml (FcRn) [%] | relative binding level (%) at 10 ug/ml (FcγRIIIa V158) [%] | relative binding level (%) at 10 ug/ml (FcγRI [1]) [%] | relative binding level (%) at 10 ug/ml (FcγRI [2]) [%] | EC50 potency, proliferation of OCI-AML5 cells (Cell Titer Glo, 7 days) (Flt3 receptor (human)) [pM] |
| --- | --- | --- | --- | --- | --- |
| anti-CD20 antibody (ocrelizumab variable domains) with IgG1 LALAPG constant region | 95.9 | 1.36 | 1.74 | -0.34 |  |
| anti-CD20 antibody (ocrelizumab variable domains) with IgG1 NG constant region | 86.7 | 2.12 | 4.5 | 0.06 |  |
| gCDX-301 (from UniProt P49771 27-179) (ligand) |  |  |  |  | 2.3 |
| anti-CD20 antibody (ocrelizumab variable domains) with IgG4 SP constant region | 66.5 | 3.41 | 70.6 | 14.8 |  |
| anti-CD20 antibody (ocrelizumab variable domains) with IgG2 wildtype constant region (antibody, part only; not given: ocrelizumab variable domains, not shown: another chain or arm of the molecule) constant: ASTKGPSVFPLAPCSRSTSESTAALGCLVKDYFPEPVTVSWNSGALTSGVHTFPAVLQSSGLYSLSSVVTVPSSNFGTQTYTCNVDHKPSNTKVDKTVERKCCVECPPCPAPPVAGPSVFLFPPKPKDTLMISRTPEVTCVVVDVSHEDPEVQFNWYVDGVEVHNAKTKPREEQFNSTFRVVSVLTVVHQDWLNGKEYKCKVSNKGLPAPIEKTISKTKGQPREPQVYTLPPSREEMTKNQVSLTCLVKGFYPSDIAVEWESNGQPENNYKTTPPMLDSDGSFFLYSKLTVDKSRWQQGNVFSCSVMHEALHNHYTQKSLSLSPGK | 99.4 | 3.85 | 2.43 | 179 |  |
